This note sets out measurements from the supplement of paper PMC11502859.

The series deals with HEK293T. Kind of series: median enrichment of reporter reads in eGFP-reduced (low/intermediate) vs eGFP-high sorted cells (eGFP-extension fusion abundance) (ratio); higher = stronger loss of eGFP-fusion protein abundance (more destabilising extension).
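Further: lentiviral eGFP-IRES-mCherry reporter pool sorted by FACS 96 h post-transduction, gated on mCherry-high cells, Illumina read counts normalized per million, median across four biological replicates.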

For “SCSNGKMALFKPGPPIGQTQQQTRGQGSPVALSIEDRFLGSRRGWRKLKAGE [BTN3A2]”, the median enrichment was 5.24.

Consider SDEHG [TMEM242], for which the median enrichment is 1.05.

On to YVNV [CLEC2B], for which the median enrichment stood at 0.896.

For the substance WRPAPARMGGGVERRTPIG [NSG2], the median enrichment is 3.66.

With RELHYPFPSQTTN [MDC1], the median enrichment turned out to be 0.473.

As for QSSF [PCNX4], the median enrichment is 0.571.

In the case of “LVARALGVLLEAPRASRIASQLPGQPTLLQPLTRTPVIRTGAPVPWSPPWAHVLTQAQQ [OVOL1]”, the median enrichment is 9.61.

Take QHGETPSLLKIQKKLARHGGGRL [FBLIM1]: the median enrichment was determined as 0.0978.

For the substance RNCMKKIKSSKMALVTIKKL [CXorf41], the median enrichment stood at 2.73.

In the case of “SRKFLRCCHLLEMRFVLCLNGLFFKKTKNQMKEHSWGFLFVCVCMCKLMSNCICRSVIVLYCVNYFHCGYFSR [U2SURP]”, the median enrichment came out at 5.89.

As to “CGPDCSLHSAHSICSHPPSLTQPPLSGILPQMRSERQ [ABHD6]”, the median enrichment was 0.625.

For the substance RGRTSALSDRTLRAMLPCHP [MRGPRX3], the median enrichment amounted to 6.81.

Regarding LKQPV [RIC3], the median enrichment worked out at 1.01.

In the case of YNIYKLWVLDGLS [RBM41], the median enrichment is 3.9.

For the substance WGCSGNSHSAPIRAPCRGPSVVSD [TBC1D14], the median enrichment was found to be 2.19.

In the case of YQLINLE [BRWD3], the median enrichment stood at 0.91.

Consider YGF [ITSN2], for which the median enrichment stood at 0.445.

For READTFFQQ [ADAM12], the median enrichment came out at 0.392.

In the case of EHVGSVPTQCFGKCKI [DNAH5], the median enrichment is 0.681.

Regarding KRGTGGRGRGVLHEMLMLSVISGESV [FAM98C], the median enrichment came out at 7.54.

For the substance RAQLLRAQTPA [TNK1], the median enrichment came to 1.82.

For the substance LISHSYLLKYI [ELAVL4], the median enrichment turned out to be 7.49.

As for “WHLTNHSTEHTFIFVSAFVLKLSKYIHLCNRNL [ADGRV1]”, the median enrichment was found to be 13.2.

Take “SGAENGSCRKIRLRRLPAFCHPSHSQTPDHLKLLTLWFQIFFNLLLLLSLSNLGTFKNREMSECG [STAT3]”: the median enrichment is 6.44.

For “CLSLPSSWDYSHTPPHLDNFVFLVETGFHYVGQAGLKLLSSGDPSASASQNAGITSVSHYTWFFFPLFANSHGVFWHHFQHYF [RBP1]”, the median enrichment was found to be 8.27.

KRTQPPSAQREATSQPRGGRIRKQSHS [CCK]: the median enrichment amounted to 0.

In the case of QENKNCRK [MRPL13], the median enrichment was found to be 0.366.

For “YGFSPFGDHLSVSPTHYPICPPPQLGPRGPTLHFWGVTDFVHGFKVYFYGLVIAEFLFWGEGKGASPLLLALRPRRLLCAANC [TSPYL2]”, the median enrichment amounted to 5.92.

In the case of “RGSGQECHSQCPDPEIGPIPCLQPCLEAIQ [SLC22A14]”, the median enrichment came out at 2.88.

For RTSARPARPFPTST [ISLR2], the median enrichment was 0.582.

Turning to GGPSV [NDUFV3], the median enrichment came to 0.139.

Consider CGRTSALSDRTLRAMLPCHP [MRGPRX3], for which the median enrichment amounted to 6.32.

SYLQCPCCVALQMRPLQTRPA [WDCP]: the median enrichment turned out to be 8.46.

RGCQLGRKRETRP [CCND2]: the median enrichment turned out to be 0.783.

For the substance PPPPPP [Pro06], the median enrichment worked out at 0.323.

“QPWSITLPPSPGTTGPITFECCIWISRCLCGSLPHFSWT [UBE2Q1]”: the median enrichment stood at 7.69.

Turning to “SWTGLFLTSDLSQCLFCPGSDFPVVLPPFRIKGLIVYPEFTSFGVYI [COBL]”, the median enrichment came to 13.

Turning to SERQEVEWRR [STAMBPL1], the median enrichment was 0.37.

Turning to “LWRQALQGGPDPRVVLTVLTVYLSSPRENASFEHTVPTICIEQKDFCFTEDKRCFYFRPRREEFALNL [CNOT8]”, the median enrichment came out at 15.4.

Regarding QQQYYRGLNNTTKSIWIA [NCAM2], the median enrichment was 25.

Take “RAGPAPCPRSPLLSRPHPPPARPTRGATPPFESLAVGWTLPFPEAA [C1QL4]”: the median enrichment turned out to be 13.1.

LTRKCCCPSSTLRPGAG [FCHO1]: the median enrichment was 7.02.

For KMDPCEIYHSLVSPSFLSFLNSTFWRDFPK [OR9Q2], the median enrichment came to 3.34.

Consider “WPPGTSLALLTHPRNTISGTRAAPRTRGYSRHNLIERAPAALTSTAFDTYASLVLLLSSESSCAHAFSRMGSPLAVAASVLAL [KIAA1522]”, for which the median enrichment is 8.47.

For the substance QFLQDTVPLPFFDQLSLVASSLHKM [FCF1], the median enrichment stood at 14.2.

As to “QTVEWLKLLSRRIYTSDLRRETLTPQWLHLL [HIST1H2BJ]”, the median enrichment was found to be 10.5.

On to YNIYSYDKDT [HCRTR2], for which the median enrichment was determined as 5.01.

With “WVGGISETGKVAALSHFFWNSWWSPGLGHCLSPACFFVRSGIISKCS [SLC35E2A]”, the median enrichment was determined as 40.8.

Regarding GNWD [PIK3C3], the median enrichment stood at 0.441.

Consider WEPTACRCRRMRGCRDARRRPRSQPTTPPPA [FOXL2], for which the median enrichment came to 17.5.

LVSCLKGGNRKSRLLSVKFVLPVCC [PCMTD2]: the median enrichment was 7.69.

Consider “RKCQEWKIFLILVQHEVVFRSLLSLIAILRFVGFYERLLLSGLKSFLNVCFLRSVIQLCEYFVTDLFQWLLV [HINT3]”, for which the median enrichment is 11.3.

As for SRFCHVNVSLSGLQLRRKRRKT [SMIM11A], the median enrichment stood at 5.41.

As to “TIRLWDTYQSEPDGFSHFHLYVCAAFLVRWRKEILEEKDFQELLLFLQNLPTAHWDDEDISLLLAEAYRLKFAFADAPNHYKK [TBC1D22A]”, the median enrichment was 4.42.

With “LAFRLALAPGTRSPRAPGPLPAPAAPSPSPGCVSLPMTLSWGPPARPGTFLPNPQTHDSLPHRLPQRPPTHFILSGHPSDLDP [SCRT2]”, the median enrichment was determined as 3.18.

In the case of QRHGVLGGLMGTGACIFCWGMKLITLL [AGBL4], the median enrichment was determined as 4.93.

Turning to CYSK [FAM162B], the median enrichment was found to be 0.641.

Consider “WQPPASHTVLQLTAHVHAVRADSSSTQQTRTYGLWMDADDGTVQ [CALN1]”, for which the median enrichment was found to be 8.36.

With KGRINK [NPIPA1], the median enrichment stood at 0.274.

Regarding LLRPHVKPPCPSTLPIALQRSSSWMTQI [RESP18], the median enrichment was 7.12.

For “YPAALPGGGGIKRPESPGCPRRDANHPVLSTGPSSLFHPHFC [E2F7]”, the median enrichment was determined as 6.7.

On to “YPCTISPSSFLGQPGPALVCGDWRDQERVWRPPEGCCLPGLQ [MLST8]”, for which the median enrichment turned out to be 5.76.

Take “LGHRQESVWAGLFNMVFAVLPPWGPWSDNIVSLVRLSRCLIRTANGASPTPPRVRPPFHQRVSSQRPPASCPAAQEEKEGLNS [PDGFB]”: the median enrichment is 4.11.

“GSGLCLVLSLPGRCSTPYRGGQLRAWAASSWTQLSRSSCSAQGGHMSEPRSWTSTQEDASEGKEIFYGLRPECQY [KLRG2]”: the median enrichment is 7.23.

Consider “EDPGTQRLCPPRPQSVPITLTVLHTVHAPLLAFFREKENFTTGSH [SERTAD2]”, for which the median enrichment is 6.58.

As for GLLPVDEVSFL [ABCC5], the median enrichment is 0.739.

“RVWGPCQPAAPKPAPLPKQPRPLPLNPGPGRPGRPPVTAAAPALCRAALTCLPSQPLTSRLSLGQREPFGGAACLLWFWEG [FLNA]”: the median enrichment is 3.47.

In the case of “LRQRQHQCRACPAALSLHALRAPLLLRYPFETSGAGPLPASLTIPRPLSHLGLGKPDSTQDQGSHEARRLRGSCPFSYSRA [SHOX2]”, the median enrichment was found to be 5.48.

For the substance SKNQRGSEKPRET [CDKN2A], the median enrichment was 0.493.

Consider WRQRGGKETWLSLIICIQITVL [ATXN1], for which the median enrichment worked out at 8.6.

As for “KSYLSLSNGMKLDNFKKLSRTKGERNTCSFSCN [KLHL4]”, the median enrichment worked out at 5.48.

Turning to SMKCLS [FANCI], the median enrichment stood at 0.846.

For the substance KNAQLL [ROR1], the median enrichment is 0.376.

Turning to YKE [DCAF17], the median enrichment was found to be 0.608.

As for “YQHWPSVFLGGTSQEPLPALLESQRGQEAVAGASTQLG [GDF5]”, the median enrichment was 1.15.

Regarding LYKKKYCPYQKQILLCTF [RHOT1], the median enrichment stood at 9.77.

Regarding FFFFFF [Phe06], the median enrichment stood at 9.02.

In the case of “SEVRPGPGQGLGPAPCPICSGPQAPPFEEVG [GUCY2D]”, the median enrichment stood at 1.47.

Regarding WMLSRSWRFKKKCRMAV [OR52D1], the median enrichment is 23.1.

For the substance RICKRRRHDVLCLH [MED12L], the median enrichment was found to be 13.4.

For the substance MMMM [Met04], the median enrichment was found to be 1.4.

In the case of “YALPSWPLISAWVDHPRLQRVEGGSSSWESF [TMEM214]”, the median enrichment turned out to be 7.05.

For YYYYYYYYY [Tyr09], the median enrichment came to 4.03.

As to QPHGAVLLMLEAS [ESPL1], the median enrichment is 6.52.

For the substance YTLENMYVWLIKCFKLN [NOTCH2NLA], the median enrichment stood at 7.83.

In the case of YVLIGLPAGCDSKA [CBX2], the median enrichment stood at 14.

With YKRIS [KCNN2], the median enrichment turned out to be 1.05.

Consider SDS [POLE2], for which the median enrichment amounted to 0.445.

On to RIFTHIYLVSIG [FAM129C], for which the median enrichment was 28.5.

Take WQAAGAWGLHWLPPAP [HNF4A]: the median enrichment stood at 5.96.

In the case of “RRTACSDQRAQRPEDKSGGDSMGMGVGCLRERTHGLGRGERCMGITFARAAYLKVTVSSGTAGDRYLLLQEINYPENSTQPVT [LEXM]”, the median enrichment was 13.9.

Take “SVFGKQQRASPLPGGLPCRFWASFPCLSLFRCAFHL [MAP2K1]”: the median enrichment came to 12.4.

As to “RPPAPNSIIYYGAAPPGWPDPWALGLWILVPCLENSPPLAPHCSL [CYTH2]”, the median enrichment stood at 8.4.

“LGRLCPLPASLLCFPSPVSSLPSRPRHLPSVPWLSRTFYPTVRPQRGQDKPCPDAFDRQLCVLVDRCRNKEEMESAPEKLQIQ [H6PD]”: the median enrichment came out at 6.07.

On to YTSGKKIFTCAGL [DDX46], for which the median enrichment was 3.47.

On to “GFHSRGCCKQRDCHLELGWQGRAASFDSESSCPSPKPPPTP [SYT6]”, for which the median enrichment was found to be 0.961.

Regarding YSCVVKINMRKLPCNLNLGFPCNRN [IL23R], the median enrichment was 22.3.

Take YNLLLIIISEIISGSPWTTS [ZIC5]: the median enrichment worked out at 5.16.

On to RDKVRVFSSYILSQATLQDVAKAYIFP [IPCEF1], for which the median enrichment is 3.59.

As to YRMETQKT [USH2A], the median enrichment is 0.809.

In the case of CLSTVLFS [SUDS3], the median enrichment is 5.55.

Take LLHERMQRMQFPGCAVDFFQQV [CEP112]: the median enrichment stood at 20.7.

Take QCR [CCDC73]: the median enrichment was 0.362.
